Patent publication US20260265357A1 (NEPHRIS, published 2026)
Residue numbers refer to the chain shown, from its start.

T1: human NBL1 (neuroblastoma suppressor of tumorigenicity 1) (human, UniProt P41271 17-181, limits assumed)
T1 construct: Recombinant human NBL1; also called DAN; DAND1
T1 sequence (looked up): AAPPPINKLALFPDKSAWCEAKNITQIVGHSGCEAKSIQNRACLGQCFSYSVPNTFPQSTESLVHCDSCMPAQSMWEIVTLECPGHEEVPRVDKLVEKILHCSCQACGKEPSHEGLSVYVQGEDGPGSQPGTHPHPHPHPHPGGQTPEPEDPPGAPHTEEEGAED

T2: mouse NBL1 (mouse, UniProt Q61477 17-178, limits assumed)
T2 sequence (looked up): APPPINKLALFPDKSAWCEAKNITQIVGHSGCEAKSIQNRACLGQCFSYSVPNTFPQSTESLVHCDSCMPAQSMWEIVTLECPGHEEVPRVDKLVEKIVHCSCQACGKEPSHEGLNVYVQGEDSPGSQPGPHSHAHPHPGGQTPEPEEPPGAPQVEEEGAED

B1: Antibody YU1018-E04 (antibody, V domains shown)
VH: QVQLVQSGAEVKKPGESLKISCKGSGYSFTSYWIGWVRQMPGKGLEWMGIIYPGDSDTRYSPSFQGQVTISADKSISTAYLQWSSLKASDTAMYYCARAIVGATSGYWFDPWGQGTLVTVSS
VL: not shown
B2: Antibody YU1018-D08 (antibody, V domains shown)
VH: QVQLVQSGAEVKKPGSSVKVSCKASGGTFSSYAISWVRQAPGQGLEWMGGIIPIFGTANYAQKFQGRVTITADKSTSTAYMELSSLRSEDTAVYYCARDRYYDSSGYYLMDPWGQGTLVTVSS
VL: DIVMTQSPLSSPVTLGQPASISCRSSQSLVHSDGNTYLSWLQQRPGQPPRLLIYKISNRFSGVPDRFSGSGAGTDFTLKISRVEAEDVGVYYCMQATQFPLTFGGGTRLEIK
B3: Antibody YU1019-A12 (antibody, V domains shown)
VH: EVQLLESGPGLVKPSQTLSLTCTVSGGSISSGDYYWSWIRQPPGKGLEWIGYIYYSGSTYYNPSLKSRVTISVDTSKNQFSLKLSSVTAADTAVYYCARGRRLLLFHWGQGTTVTVSS
VL: QSVLTQPPSVSAAPGQKVTISCSGSGSSIGNNYVSWYQQVPGTPPKLLIYDNNKRASGIPDRFSGSKSGTSATLGITGLQTGDEADYYCGTWDNSLSAVVFGGGTKLTVL
B4: Antibody YU1018-D06 (antibody, V domains shown)
VH: QVQLVESGPGLVKPSQTLSLTCTVSGGSISSGGYYWSWIRQHPGKGLEWIGYIYYSGSTYYNPSLKSRVTISVDTSKNQFSLKLSSVTAADTAVYYCARSGAAGIPWFDPWGQGTLVTVSS
VL: B3 VL with G26S, S28N, V40L, P44A, D51E, K54E, A56P, F63L, G75A, N94S
B5: Antibody YU1018-G01 (antibody, V domains shown)
VH: QVQLVQSGAEVKKPGASVKVSCKASGYTFTSYAMHWVRQAPGQRLEWMGWINAGNGNTKYSQKFQGRVTITRDTSASTAYMELSSLRSEDTAVYYCARGRELLTFDYWGQGTLVTVSS
VL: not shown
B6: Antibody YU1018-D12 (antibody, V domains shown)
VH: EVQLVQSGAEVKKPGASVKVSCKASGYTFTSYGISWVRQAPGQGLEWMGWISAYNGNTNYAQKLQGRVTMTTDTSTSTAYMELRSLRSDDTAVYYCARDVGYSYGIFDYWGQGTLVTVSS
VL: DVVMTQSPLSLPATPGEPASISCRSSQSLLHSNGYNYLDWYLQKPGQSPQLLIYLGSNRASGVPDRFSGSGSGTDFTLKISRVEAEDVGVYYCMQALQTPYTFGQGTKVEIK
B7: Antibody YU1019-B06 (antibody, V domains shown)
VH: EVQLLESGGGVVQPGRSLRLSCAASGFTFSSYAMHWVRQAPGKGLEWVAVISYDGSNKYYADSVKGRFTISRDNSKNTLYLQMNSLRAEDTAVYYCASPVLRYFDWLPNYWGQGTLVTVSS
VL: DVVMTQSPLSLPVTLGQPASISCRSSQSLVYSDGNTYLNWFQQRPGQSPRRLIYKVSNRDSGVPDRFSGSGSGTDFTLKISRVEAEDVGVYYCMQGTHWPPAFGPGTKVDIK
B8: Antibody YU1018-E07 (antibody, V domains shown)
VH: B7 VH with L116T
VL: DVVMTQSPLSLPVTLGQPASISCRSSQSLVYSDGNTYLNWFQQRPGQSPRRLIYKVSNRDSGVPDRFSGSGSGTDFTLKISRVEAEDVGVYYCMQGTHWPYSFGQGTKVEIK
B9: Antibody YU1018-E01 (antibody, V domains shown)
VH: QVQLVQSGAEVKKPGASVKVSCKASGYTFTSYGISWVRQAPGRGLEWMGWISAYNGNTNYAQKLQGRVTMTTDTSTSTAYMELRSLRSDDTAVYYCARGPRDGYNDYWGQGTLVTVSS
VL: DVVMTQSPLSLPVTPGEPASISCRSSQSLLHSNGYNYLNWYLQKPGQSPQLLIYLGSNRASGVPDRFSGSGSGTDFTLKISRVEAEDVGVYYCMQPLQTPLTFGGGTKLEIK

The binders below were run against T1, human NBL1 (neuroblastoma suppressor of …) (assay: ELISA, IgG1 format).
Experimental: (§1) Naïve human phage display libraries were panned to discover Fabs capable of binding human NBL1 (UniProt ID P41271), and further screened for potential inter species cross reactivity to mouse NBL1 (UniProt ID Q61477) and/or cynomolgus (“cyno”) NBL1 (UniProt ID A0A2K5WIY3). […] Antigen binding of the IgG1 formatted antibodies was tested by ELISA and EC50 values were calculated.

Row | Binder | binding result
1 | B1 | binds
2 | B2 | binds
3 | B3 | binds
4 | B4 | binds
5 | B5 | binds
6 | B6 | binds
7 | B7 | binds
8 | B8 | binds
9 | B9 | binds

Each binder was assayed against T2, mouse NBL1 (assay: ELISA, IgG1 format).
Experimental: as §1

Row | Binder | binding result
10 | B1 | binds
11 | B2 | binds
12 | B3 | binds
13 | B4 | binds
14 | B5 | binds
15 | B6 | binds
16 | B7 | binds
17 | B8 | binds
18 | B9 | binds
